These results are taken from the domain aggregation screens of Martell et al. (2025).

The data set is described as follows: soluble fraction after stress (log2 fold change); higher = more stays soluble; pooled small domains, quantitative proteomics. To be noted: stress: pH 4. The procedure, abridged: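 Aggregation propensity here comes from the fold change in the soluble amount of each small protein domain after acid stress, measured in pooled custom libraries by high-throughput quantitative proteomics. The acid stress was pH 4. On the log2 scale, higher values mean more of the domain stayed soluble.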

On to “HMIKEGDLVFIWNPKKGDSFLIKVQPGQSQGTHFGQIKHSEIMEHNYGEGIRTPKGQVYYLLRPTLGEFTR”, for which the “soluble fraction (log2)” value was -0.38.
The figure for “HMIKEVGYEKFMQMTEEEDIGRVEIDQEENQITFTDKDETAIYKTGMVDDPDLTERLYDAGAEFS” is -0.591; for “HMIKIDESTLSEDELKIFEILKIEDKNIENIAIESKILPGKLLATLMNMEMKKIVVQYPGKVFGLNRKLK” it is 0.0566.
For the sequence “HMIKKAILPVAGLGTRFLPASKSIPKEMVTVVDRPAIEYVVREAVEAGIEQIILVTHSSKASIENYFDR”, the “soluble fraction (log2)” value was -0.217.
As for “HMIKKLDIEPIIKSVVDDFNNIYKLKRGITISYLNDGKNKYFINGIENRIEQIIANLLDNSISFSEDNKDV”, the “soluble fraction (log2)” value worked out at 0.122.
As to “HMIKLSTNENTALRLVMERGLVTESELKGLFDNPVAVMESLISKMIETNTHWIHSERSENGEWVYAWQ”, the “soluble fraction (log2)” value was -1.46.
For “HMIKNDIGKFIKLYRETHQWSQRELAEHLGVSQRNVSYYEKGERIPPADVLKKLSTLFDVPVDVLLGLK”, the “soluble fraction (log2)” value was -0.274.
“HMIKRDLAFSEFIAEVKAGQVREVTIKGNSISGNLNDGREFNTYAPNDPNLVKTLTDQGVLIRAIPLE”: the “soluble fraction (log2)” value came out at 0.227.
Under “HMILNPQELGERIRKLRLKRNKTQSYFADMLYISSSYLALIESGKRVPNLDLLIHIAKFTDVTLDYLVFG” stands -0.573; under “HMILVLKPGAPEDLKNELIHDIEKMGLRVHVSVGEGTTIIGLIGDTSKISKYTFSSYEIVSNVLRVT”, -0.35.
The figure for “HMILYDDEYKGPRYRYGLHSRPLSPGAVPKGFIIHSDRPHPDFRHGTLDYPVKLPDDRAANFELIFIGEFD” is -1.19; for “HMIMMTLGEKIRSIRKAKGMTQQELAEKLNTTKQTIGKYEKGIVTNLPLFRINELARALSTTPAYLTGW” it is no less than 0.43; for “HMIMPSDATEAKLLGVLGNEPLHVDEIRNQAELPIEKVSAALALMELKGMVRQVGGMNYVAVR” it is -0.263.
Under “HMIMQTTSDRINQRMRDLGLQHKDLVAATGASKGTVTNWINGVNNPTGKRLVQLAQALKTTSSWLLTGN” stands -0.0389; under “HMINDPSALGQRAFVDELLWMAGYVPEKIEIYQTLPNNSRVYRVKLDSVNGGFIFIRWDKKKKEHYV”, -0.444; under “HMINEEELLKIENIKRKYPDSKAALMPVLYFFQEKYGFISDDSIKEISQLLNISEVDIKGVVSFYEMFHEK”, -1.04.
Turning to “HMINEVVSLRDVPSFIGKAKRDVIRIAEENNLKIKINGNGYVKEQTPNPGNKYKSNQEIKVFLEPG”, the “soluble fraction (log2)” value is 0.0157.
In the case of “HMINFSKNIISDTTSIKEAIEILNIISGRDNHILFVLNDKRQLIGTLSDGDVRRGMLASKTISQSVTEVM”, the “soluble fraction (log2)” value came out at 0.0244.
The figure for “HMINIDESIDESLSEDDAVLDLLERASASFTKAQEALLEGDLGRYQTLIEQADRLVAKALELLDEKN” is -1.34.
The figure for “HMINIQYSYNDGKETLHNLSPEVIAEKIMDDPNGYHIVWKQGMVGWVNANDIDDIAKLLRQKK” is -0.0166.
For “HMINKDNLIEEILKFINTKIADISSNNPLFDIVAKPYISKVVTNNVSKLDKALSLIADDKGMVDADGLLT”, the “soluble fraction (log2)” value is -0.295.
Under “HMINLDGIGEKISRLRKEQGVTIRELSEYTGYSVGFLSNLETGKNSPTVESLQRVAEALRTDIIEILTK” stands -0.754.
The figure for “HMINLNEVLANFQKSYPNLAGFKYDQGMDALVYEGNYIRLNGYMLSRINPTLFSMSPDDIFTYLKNGF” is -1.22; for “HMINRMGRLVEALSHMIANTKPGARLPSEPELARQLGVSRATLREAMRTFEAQGMIHRRQGAGTFVVH” it is 0.00515.
The figure for “HMINYSQKQLIAIQDELSKRFQALENESTKNNVTGFGVGLHYIDIDLIVNTPEKQKEFREKIMDSPAFRFN” is 0.106; for “HMINYYELLKLDMNAAHEEINDAIKLESEKNTIPEDQIRTMKSIFFNTEFKKEYDQRLMNFLLT” it is -1.28; for “HMIPDAIDPDGRFKWRAGEAVVGFGRHAGEPLKKIAIENPEFLRWILKADFSTDVKKIASDALKGYFPEK” it is 0.284.
“HMIPDLPAVGVNVHKERRRQQLSLDALAAGSGVSKAMLSQIESGKVNPTVATMWKIAHALGVDFELLLKGE”: the “soluble fraction (log2)” value is -0.00451.
As to “HMIPDPPALGSNLHRERRRQQLSLDALAAASGVSKAMLSQIEADKVNPTIATMWKIAHALNIDFETLLRGE”, the “soluble fraction (log2)” value is 0.172.
Under “HMIPENKRVLISLTYIYGIGKKISQDILEKANIDSSIKTSQLTDDDVARIRQLIENDYLVEGELRV” stands 0.00777; under “HMIPLPEDVASMRERLALTPEKADELFGLEDGSFARYEHGEEKVPFVVFQLLWLLGKYPHLIGELR”, -0.801.
As for “HMIPRGFSRYYILELLQKKPHTGKEIIDNAIKESGGRWNPSPGLIYPLLGRLLDENLIEETNDGKYK”, the “soluble fraction (log2)” value is -0.631.
As to “HMIPSLTITVNEHSRQITRGTSLYTLRDALYPDADVLVVNGHPADSDRHLEEGDAVVLIRRGA”, the “soluble fraction (log2)” value was -0.394.
For “HMIQIQDIAFSEFLQELDKGNIVEVNIKGDLINGDLINGKKFKTVAPYDPNLVEKLSKQNVRINVEPIN”, the “soluble fraction (log2)” value was -0.0277.
Take “HMIQLKEHDVVRLRETIVENDEKIPAGTRGVVLSVYDGGRAFAVEVADDRAASAIITAFRDQLEVY”: the “soluble fraction (log2)” value is -0.0481.
Under “HMIQNTGMMESGDSIRGMALDAGFPLLMVVGYRGWTRKGNTPDSAAVYTEPFLNAFRLNYYLVEHDE” stands -0.0253; under “HMIQVNKTQALIIEEMRDNPNITLLELQKTLSLGRTAIQNNVSSLRKRQIIKRVGSNKNGYWEVTDK”, 0.22.
As for “HMIRQETYLLVRKAVGALPVQMRKIIELAMQGKKNAEIAAQLSISEGTVHTLKKTAYKKLRDRLQE”, the “soluble fraction (log2)” value is -0.32.
With “HMIRQGTKQALLIEMLQRPEGASITEIVEATSWQAHTARGAISGALKKKLGLPITSEKHPERGTVYKL”, the “soluble fraction (log2)” value is -0.55.
Turning to “HMISAQEQALRNLKLSNGMTWKALAKALGITERSILSYVAAPGTKGYREMPAEVWHKLENISGH”, the “soluble fraction (log2)” value was determined as 0.143.
The figure for “HMISDAEWTIMKALWQSEDKKMTLKEIAEAVADSGWSYTTVRTMVGRLVEKEAIEADESHPRNFRYSAA” is -1.4.
For the sequence “HMISEGDIIKGTVIDVNEEEVILDLKYYAQGVIKAENLSNDPDFLAAGKISVGDEIEATVIKMDDGEGNIE”, the “soluble fraction (log2)” value was -0.496.
Under “HMISESIPAKDALLRLLNTAYQTRTNAAGEFYFNDVPPGKYILQASVNDVEIIRENISINEN” stands -0.433.
The figure for “HMISEWDAAYSYAKQYYEENGHLFVPKKYVTSEGAALGKWIWEQRDSYLGLSSYKISDKKIEMLEDIGMFW” is -2.73; for “HMISINVIGEMISGSYGNTPFSRTYEKDIYEQMVKLSDDADQAQTVEEYNKILAEFSLLTTEDLK” it is -1.73; for “HMISKWGELVDLAVQLDIIQKSGSWFSMGDERIGQGANSVKDYLIANPDIAEKVEAEVRENLWKLN” it is -0.351.
On to “HMISKYLRIESDILSAIREGRLKPGDKLPGQSEMRRIYNVSAITVRKAFTDLINDGYLVGVRGSGTYVAKR”, for which the “soluble fraction (log2)” value is 0.117.
Take “HMISQATMEKMGLTNRERQLVDFIVRGASNQEISEKMFISINTVKIHVSNIFRKAGVRSRTELMDKYP”: the “soluble fraction (log2)” value is -0.693.
Under “HMISSKDIINDEDGARLGKIADVEIDVATGKILSVHVYRSFKLLHLFGNKDVVQIPWNKIMKIGSDVVIVE” stands -0.198; under “HMISVENLSNREFEIFQLIGNGFSTKEMAKKLNLSIYTVESHKKNIKEKLKLKNSSDLSKYAIQWVIMQN”, -1.35; under “HMITANNYFNEVERIGVETLPETLRKGHDLVVRSTNSGTNWSNYQNNESIRKVIDLYLQKLNEYVSTST”, -0.676.
With “HMITGSIQPKNGKYYAVLNLYDHTGKRRPKWVSTGYTVKGNKKKAQEVLNELTRRYSAQLPPSK”, the “soluble fraction (log2)” value was found to be 0.22.
The figure for “HMITLPDFVGKDVETVKAWAKENGITLIVNKVEDSAKKDTVISQTPTTYDYSKIMKGSSFTVNVAKE” is 0.0768; for “HMITNLEPFKDFVRGFSGLHLEGVGQEKLAAALDERIRKTGSANERDYLQLIMEDVAERLKLINILT” it is -1.17.
Under “HMITPAARLRALKIRLSVDEVAQIVQRLVNGETVYQIGKPDTGGHAKATVGKINALRLAGQLHFL” stands -0.259; under “HMITTLLVENLQDVGMRLDHYLVYNLIKYSRSHIQSFIRSGDIRVNGKKVKTGYSLELKDLIHIEMP”, -1.1; under “HMITVPKVINMSETQARQTLDALGLNVTLSATQVMNDKIPYGYVAAQSYSAGKEVPAGTTIELTMSIGL”, 0.0236.
As to “HMIVDYPSFVGKTKQELEKWAKENNIIIRYRQLSVTASDKVKAQLPATTTYKRIMKGSSIEVELEL”, the “soluble fraction (log2)” value was -0.749.
Regarding “HMIVIMKAKAEEEDVNRVIDTIQSLGLRTQLNLGAERMVVAVIGDISKIGEDNFFRIRAMKGVENTVFVSK”, the “soluble fraction (log2)” value is -0.811.
As for “HMIVMPELRGKDLKEAERLLSSHNLRYELVDSVYDKSLAPGVVVEMVPQSGNTVKPGRIIFLSINA”, the “soluble fraction (log2)” value is -0.272.
Under “HMIVNTTRAPYLLGETEQDAMRLARQAGLVPEIVRQSSAEPAGTVILQSHDFDYRMRRGSVILITVSTGPL” stands 0.22.
The figure for “HMIVPPAIPFRALGIFGPRDRPIVTFEDGPRLINAREGDVLDGRFILRRVGRESVDFAFVGLPPEITRRIP” is -0.608.
For “HMIVSEYIIIGGDKKEYGPVSMGEVGEWVQGGRANGDSKIKKVGTEEWGRLRDFPEFSAYLS”, the “soluble fraction (log2)” value was -0.309.
Turning to “HMIVVMARETSTDDLEAIRERIESRGMVAQINLGVERTVIGVMGSIPPDFKDEMELMNGVVEVVMISK”, the “soluble fraction (log2)” value is -1.64.
For the sequence “HMIVVMKTSASERDLQEVIARIEQFGFATRSIVGSERATVSVLGAPLPDSLQEALERMPGVEEVVRITK”, the “soluble fraction (log2)” value was -0.0559.
As to “HMIYAEDFVGRQGTANTILRPSGRIEIEGEVYDAYTRGEYVEAGERVVVISQEGSTLKVRVV”, the “soluble fraction (log2)” value was -1.36.
The figure for “HMIYQEGMQVKYQGKEYVISEIQDYKTYKTIKLDDNEGYLNGFITGSEILSFRNESELDLEI” is -0.785.
In the case of “HMIYSKSDLELFGIKKIDVMEENILMLILSEYELDQTPKNILIDEAVRLSKKFGADNAYKFVNATLDTLL”, the “soluble fraction (log2)” value was -1.51.
